The source of these data is patent US20100313308.

The target of data set [1] is multiubiquitin chain linked by iso-peptide.
For data set [2], the target named is his-tagged polyubiquitin UBQ10 (hexameric polyubiquitin), Q8H159.
In data set [3] the target is his-tagged ubiquitin-extension protein UBQ1.

his-tagged polyubiquitin UBQ10 (hexameric polyubiquitin), Q8H159, sequence (Q8H159 whole entry, looked up): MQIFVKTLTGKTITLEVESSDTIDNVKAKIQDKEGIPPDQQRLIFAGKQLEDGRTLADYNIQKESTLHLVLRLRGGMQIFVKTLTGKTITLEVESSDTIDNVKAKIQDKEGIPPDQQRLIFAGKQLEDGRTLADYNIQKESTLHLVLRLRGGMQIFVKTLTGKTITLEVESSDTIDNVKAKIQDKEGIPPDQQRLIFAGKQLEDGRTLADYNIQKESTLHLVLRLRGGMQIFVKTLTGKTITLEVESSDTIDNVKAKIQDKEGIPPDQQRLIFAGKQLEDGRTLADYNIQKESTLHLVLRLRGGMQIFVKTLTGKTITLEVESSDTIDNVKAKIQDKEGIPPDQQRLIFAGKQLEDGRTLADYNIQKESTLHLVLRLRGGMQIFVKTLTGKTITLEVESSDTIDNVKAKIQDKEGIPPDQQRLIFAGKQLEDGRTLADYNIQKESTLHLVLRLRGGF

B1: GST-UBP15 (protein)
chain: MLEPRGADIPILFLVLVVLPVVAYILLGKWSNISEKRVRANLLAQMAAEEALRAETVVNADRGVRFESVATENRAQRTRTKTVSAGGGAVRAEFDAGARETVAEQRSDSVTATCGVTVVAPVNNNELHVCARCFGPAKTRCSRCKSVRYCSGKCQIIHWRVAHKDECVPVESCSSSSERVSFEKDSVLYDHGMDSTMYSNNTTQAAKGKTSKSSVDFASLGISQNDITPQINTQGRKSVGKQHSSKANRESCRRDSATVFDSSDEAASAGGDNKTSHIKHKSRGNSYAAETNPRRHSVDSSAVQMNGQSFVSGMQESHKHENNLGVRSSFGCPNTQYPSNGTRTATLPRTGINKSGEQSCTETSKKGQVAAVSKTVRSKDTGISEESNGISSTMGIMKMMGLRNSTKHDDRYKNLKMLFPYEEFLKFFQCEVFDLSPRGLVNCGNSCYANAVLQSLTCTKPLVAYLLRRSHSRSCSGKDWCLMCELEQHVMMLRESGGPLSASRILSHMRSINCQIGDGSQEDAHEFLRLLVASMQSICLERLGGETKVDPRLQETTLVQHMFGGRLRSKVKCLRCDHESERYENIMDLTLEIYGWVESLQDALTQFTRPEDLDGENMYRCSRCAGYVRARKELSIHEAPNILTIVLKRFQEGRYGKINKCISFPEMLDMIPFMTRTGDVPPLYMLYAVIVHLDTLNASFSGHYISYVKDLRGNWYRIDDSEIHPVPMTQVMSEGAYMLFYMRSYPRPQRGEHNGKAPVHHSQPRNEMKEQRKPVNRFKPRADHKNTESSSSEWSLFTSSDEASFTTESTRDSFSTIDYTDVCHVVDSSSPFAIFNNVYHNVEPSPHNTVACRMFSGTKPETRYFVEQETNHNNTVVLDATPSLYPIPAPYPPHDYYDQSMYVNYETNPEFNNGQDQDRTYSYW
As for B1, the “in vitro DUB activity assay (data not shown)” value in data set [1] is “UBP15 can only cleave a-linked peptide (polyubiquitin and ubiquitin-extension gene) (FIG. 5A), not c-linked isopeptide (multiubiquitin chain linked by iso-peptide) (data not shown)”. In addition, the “in vitro DUB activity assay (co-expression in E. coli, immunoblot with anti-ubiquitin antibody)” value in data set [2] is reported as “UBP15 can cleave substrate UBQ10 (hexameric polyubiquitin)”; in data set [3], “UBP15 can cleave substrate UBQ1 (ubiquitin-extension protein)”.

B2: GST-UBP15C447S (protein)
chain: MLEPRGADIPILFLVLVVLPVVAYILLGKWSNISEKRVRANLLAQMAAEEALRAETVVNADRGVRFESVATENRAQRTRTKTVSAGGGAVRAEFDAGARETVAEQRSDSVTATCGVTVVAPVNNNELHVCARCFGPAKTRCSRCKSVRYCSGKCQIIHWRVAHKDECVPVESCSSSSERVSFEKDSVLYDHGMDSTMYSNNTTQAAKGKTSKSSVDFASLGISQNDITPQINTQGRKSVGKQHSSKANRESCRRDSATVFDSSDEAASAGGDNKTSHIKHKSRGNSYAAETNPRRHSVDSSAVQMNGQSFVSGMQESHKHENNLGVRSSFGCPNTQYPSNGTRTATLPRTGINKSGEQSCTETSKKGQVAAVSKTVRSKDTGISEESNGISSTMGIMKMMGLRNSTKHDDRYKNLKMLFPYEEFLKFFQCEVFDLSPRGLVNCGNSSYANAVLQSLTCTKPLVAYLLRRSHSRSCSGKDWCLMCELEQHVMMLRESGGPLSASRILSHMRSINCQIGDGSQEDAHEFLRLLVASMQSICLERLGGETKVDPRLQETTLVQHMFGGRLRSKVKCLRCDHESERYENIMDLTLEIYGWVESLQDALTQFTRPEDLDGENMYRCSRCAGYVRARKELSIHEAPNILTIVLKRFQEGRYGKINKCISFPEMLDMIPFMTRTGDVPPLYMLYAVIVHLDTLNASFSGHYISYVKDLRGNWYRIDDSEIHPVPMTQVMSEGAYMLFYMRSYPRPQRGEHNGKAPVHHSQPRNEMKEQRKPVNRFKPRADHKNTESSSSEWSLFTSSDEASFTTESTRDSFSTIDYTDVCHVVDSSSPFAIFNNVYHNVEPSPHNTVACRMFSGTKPETRYFVEQETNHNNTVVLDATPSLYPIPAPYPPHDYYDQSMYVNYETNPEFNNGQDQDRTYSYW
On to B2, for which the “in vitro DUB activity assay (co-expression in E. coli, immunoblot with anti-ubiquitin antibody)” value in data set [2] and in data set [3] was “Cysteine^447 is essential for this DUB activity” in each case.

B3: GST-UBP15C447A (protein)
chain: MLEPRGADIPILFLVLVVLPVVAYILLGKWSNISEKRVRANLLAQMAAEEALRAETVVNADRGVRFESVATENRAQRTRTKTVSAGGGAVRAEFDAGARETVAEQRSDSVTATCGVTVVAPVNNNELHVCARCFGPAKTRCSRCKSVRYCSGKCQIIHWRVAHKDECVPVESCSSSSERVSFEKDSVLYDHGMDSTMYSNNTTQAAKGKTSKSSVDFASLGISQNDITPQINTQGRKSVGKQHSSKANRESCRRDSATVFDSSDEAASAGGDNKTSHIKHKSRGNSYAAETNPRRHSVDSSAVQMNGQSFVSGMQESHKHENNLGVRSSFGCPNTQYPSNGTRTATLPRTGINKSGEQSCTETSKKGQVAAVSKTVRSKDTGISEESNGISSTMGIMKMMGLRNSTKHDDRYKNLKMLFPYEEFLKFFQCEVFDLSPRGLVNCGNSAYANAVLQSLTCTKPLVAYLLRRSHSRSCSGKDWCLMCELEQHVMMLRESGGPLSASRILSHMRSINCQIGDGSQEDAHEFLRLLVASMQSICLERLGGETKVDPRLQETTLVQHMFGGRLRSKVKCLRCDHESERYENIMDLTLEIYGWVESLQDALTQFTRPEDLDGENMYRCSRCAGYVRARKELSIHEAPNILTIVLKRFQEGRYGKINKCISFPEMLDMIPFMTRTGDVPPLYMLYAVIVHLDTLNASFSGHYISYVKDLRGNWYRIDDSEIHPVPMTQVMSEGAYMLFYMRSYPRPQRGEHNGKAPVHHSQPRNEMKEQRKPVNRFKPRADHKNTESSSSEWSLFTSSDEASFTTESTRDSFSTIDYTDVCHVVDSSSPFAIFNNVYHNVEPSPHNTVACRMFSGTKPETRYFVEQETNHNNTVVLDATPSLYPIPAPYPPHDYYDQSMYVNYETNPEFNNGQDQDRTYSYW
With B3, the “in vitro DUB activity assay (co-expression in E. coli, immunoblot with anti-ubiquitin antibody)” value in data set [2] and in data set [3] was “Cysteine^447 is essential for this DUB activity” each time.
